In PMC12990809:

Assays:
Assay in all cases: pulldown
[1] = molecular target: T1, SCHCODRAFT_35516 S109T;I250V (Schizophyllum commune) (UniProt A0ACF2EGB7); settings: 20 nM protein, 1.5 uM RNA pool; 20 mM HEPES pH 7.8, 70 mM KCl, 10 mM NaCl, 10% glycerol, 2 mM DTT, 0.1 ug/uL BSA; 30 min, 4 C
T1 sequence: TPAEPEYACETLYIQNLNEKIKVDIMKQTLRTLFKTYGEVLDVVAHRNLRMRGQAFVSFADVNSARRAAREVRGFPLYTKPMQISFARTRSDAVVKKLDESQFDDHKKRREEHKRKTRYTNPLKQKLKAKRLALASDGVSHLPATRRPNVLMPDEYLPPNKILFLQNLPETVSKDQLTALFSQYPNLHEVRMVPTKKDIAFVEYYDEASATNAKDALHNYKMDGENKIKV

[2] = molecular target: T2, LmjF.29.1350 (Leishmania major) (UniProt E9ADZ4); settings: 20 nM protein, 1.5 uM RNA pool; 20 mM HEPES pH 7.8, 70 mM KCl, 10 mM NaCl, 10% glycerol, 2 mM DTT, 0.1 ug/uL BSA; 30 min, 4 C
T2 sequence: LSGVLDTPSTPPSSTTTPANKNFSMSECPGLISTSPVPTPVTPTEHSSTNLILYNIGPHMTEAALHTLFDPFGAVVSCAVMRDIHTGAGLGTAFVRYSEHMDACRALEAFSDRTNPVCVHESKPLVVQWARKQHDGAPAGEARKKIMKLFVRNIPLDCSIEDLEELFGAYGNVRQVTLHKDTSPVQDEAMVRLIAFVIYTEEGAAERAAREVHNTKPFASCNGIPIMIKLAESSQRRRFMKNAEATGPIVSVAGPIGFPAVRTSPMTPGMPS

ELAVL1 (Homo sapiens) = ELAVL1 (Homo sapiens) (UniProt Q15717); settings: 20 nM protein, 1.5 uM RNA pool; 20 mM HEPES pH 7.8, 70 mM KCl, 10 mM NaCl, 10% glycerol, 2 mM DTT, 0.1 ug/uL BSA; 30 min, 4 C (protocol of this paper; not …); cited from earlier work
ELAVL1 (Homo sapiens), sequence (Q15717 1-325): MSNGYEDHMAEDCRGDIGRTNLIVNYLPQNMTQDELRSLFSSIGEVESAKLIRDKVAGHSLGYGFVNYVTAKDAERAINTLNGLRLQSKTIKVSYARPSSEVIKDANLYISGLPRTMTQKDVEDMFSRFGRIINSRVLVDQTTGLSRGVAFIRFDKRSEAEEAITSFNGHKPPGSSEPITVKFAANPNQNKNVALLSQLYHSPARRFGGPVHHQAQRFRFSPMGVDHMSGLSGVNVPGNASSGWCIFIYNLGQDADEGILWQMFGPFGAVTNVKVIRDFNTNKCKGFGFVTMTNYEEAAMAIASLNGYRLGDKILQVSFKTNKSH

[3] = molecular target: T3, ENSMODG00000011916 (Monodelphis domestica) (UniProt F7E028); settings: 20 nM protein, 1.5 uM RNA pool; 20 mM HEPES pH 7.8, 70 mM KCl, 10 mM NaCl, 10% glycerol, 2 mM DTT, 0.1 ug/uL BSA; 30 min, 4 C
T3 sequence: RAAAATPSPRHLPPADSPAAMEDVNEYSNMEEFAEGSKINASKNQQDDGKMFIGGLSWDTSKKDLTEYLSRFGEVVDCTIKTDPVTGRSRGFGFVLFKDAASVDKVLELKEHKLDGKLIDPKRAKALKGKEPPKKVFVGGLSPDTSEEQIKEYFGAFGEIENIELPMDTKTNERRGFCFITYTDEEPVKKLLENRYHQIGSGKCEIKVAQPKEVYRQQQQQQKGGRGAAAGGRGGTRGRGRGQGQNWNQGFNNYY

[4] = molecular target: T4, LmjF.29.1340 (Leishmania major) (UniProt E9ADZ3); settings: 20 nM protein, 1.5 uM RNA pool; 20 mM HEPES pH 7.8, 70 mM KCl, 10 mM NaCl, 10% glycerol, 2 mM DTT, 0.1 ug/uL BSA; 30 min, 4 C
T4 sequence: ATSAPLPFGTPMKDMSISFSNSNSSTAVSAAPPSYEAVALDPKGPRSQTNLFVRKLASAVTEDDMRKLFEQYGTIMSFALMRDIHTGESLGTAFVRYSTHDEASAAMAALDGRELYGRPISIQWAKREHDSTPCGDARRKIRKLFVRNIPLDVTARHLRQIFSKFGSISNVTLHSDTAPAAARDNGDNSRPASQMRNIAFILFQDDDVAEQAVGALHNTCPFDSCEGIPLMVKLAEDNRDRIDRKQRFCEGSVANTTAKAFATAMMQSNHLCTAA

DDX53 (Homo sapiens) = DDX53 (Homo sapiens) (UniProt Q86TM3); settings: 20 nM protein, 1.5 uM RNA pool; 20 mM HEPES pH 7.8, 70 mM KCl, 10 mM NaCl, 10% glycerol, 2 mM DTT, 0.1 ug/uL BSA; 30 min, 4 C
DDX53 (Homo sapiens), sequence (Q86TM3 whole entry): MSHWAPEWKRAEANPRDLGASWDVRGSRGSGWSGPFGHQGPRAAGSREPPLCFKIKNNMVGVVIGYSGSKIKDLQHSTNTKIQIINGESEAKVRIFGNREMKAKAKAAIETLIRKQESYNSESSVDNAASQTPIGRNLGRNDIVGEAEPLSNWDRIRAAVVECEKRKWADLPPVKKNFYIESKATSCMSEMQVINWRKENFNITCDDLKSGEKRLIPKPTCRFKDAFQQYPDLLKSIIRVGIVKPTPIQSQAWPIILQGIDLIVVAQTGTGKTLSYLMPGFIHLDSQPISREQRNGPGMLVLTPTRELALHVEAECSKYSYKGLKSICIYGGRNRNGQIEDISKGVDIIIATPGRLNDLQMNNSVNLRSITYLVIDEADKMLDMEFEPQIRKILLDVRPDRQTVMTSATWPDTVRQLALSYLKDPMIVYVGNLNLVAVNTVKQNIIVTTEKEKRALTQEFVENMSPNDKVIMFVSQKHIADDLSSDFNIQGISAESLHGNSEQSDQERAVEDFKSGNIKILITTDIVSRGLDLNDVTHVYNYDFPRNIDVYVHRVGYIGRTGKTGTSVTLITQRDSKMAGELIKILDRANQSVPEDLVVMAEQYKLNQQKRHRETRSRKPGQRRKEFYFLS

mex3c (Danio rerio) = molecular target: T5, mex3c (Danio rerio) (UniProt A0A8M1REM5); settings: 20 nM protein, 1.5 uM RNA pool; 20 mM HEPES pH 7.8, 70 mM KCl, 10 mM NaCl, 10% glycerol, 2 mM DTT, 0.1 ug/uL BSA; 30 min, 4 C
T5 sequence: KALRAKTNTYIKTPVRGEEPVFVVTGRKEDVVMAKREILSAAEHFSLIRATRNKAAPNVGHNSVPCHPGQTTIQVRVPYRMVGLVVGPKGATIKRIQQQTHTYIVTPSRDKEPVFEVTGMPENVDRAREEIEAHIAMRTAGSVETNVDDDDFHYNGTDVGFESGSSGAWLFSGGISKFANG

[5] = molecular target: T6, NEMVEDRAFT_v1g141408 (Nematostella vectensis) (UniProt A7T170); settings: 20 nM protein, 1.5 uM RNA pool; 20 mM HEPES pH 7.8, 70 mM KCl, 10 mM NaCl, 10% glycerol, 2 mM DTT, 0.1 ug/uL BSA; 30 min, 4 C
T6 sequence: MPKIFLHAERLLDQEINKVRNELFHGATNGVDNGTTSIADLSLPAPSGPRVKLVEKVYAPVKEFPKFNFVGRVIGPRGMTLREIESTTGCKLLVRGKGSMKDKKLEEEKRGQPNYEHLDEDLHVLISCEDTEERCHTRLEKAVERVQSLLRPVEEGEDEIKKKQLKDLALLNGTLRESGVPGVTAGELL

[6] = molecular target: T7, BATDEDRAFT_13807 (Batrachochytrium dendrobatidis) (UniProt F4NYD0); settings: 20 nM protein, 1.5 uM RNA pool; 20 mM HEPES pH 7.8, 70 mM KCl, 10 mM NaCl, 10% glycerol, 2 mM DTT, 0.1 ug/uL BSA; 30 min, 4 C
T7 sequence: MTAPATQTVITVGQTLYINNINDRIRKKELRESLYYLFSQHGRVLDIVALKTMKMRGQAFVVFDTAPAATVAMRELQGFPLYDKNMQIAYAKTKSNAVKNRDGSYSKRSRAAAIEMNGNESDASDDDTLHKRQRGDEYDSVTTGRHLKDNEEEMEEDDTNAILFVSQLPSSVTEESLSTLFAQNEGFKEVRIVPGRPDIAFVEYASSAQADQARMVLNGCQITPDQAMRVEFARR

UAGCACA [RNAcompete motif RNCMPT00725] gave a binding signal (z-score (mean of top ten 7-mers)) [1] of 10.8.

In the case of CAUAGU [RNAcompete motif RNCMPT00713], the binding signal (z-score (mean of top ten 7-mers)) [2] was 24.5.

In the case of UUAUUUU [RNAcompete motif RNCMPT00032], the binding signal (z-score (mean of top ten 7-mers)) (ELAVL1 (Homo sapiens)) is listed as 15.

Substance AGAUAAA [RNAcompete motif RNCMPT00707] has a binding signal (z-score (mean of top ten 7-mers)) [3] of 8.36.

In the case of CAUAGU [RNAcompete motif RNCMPT00712], the binding signal (z-score (mean of top ten 7-mers)) [4] was 16.4.

With AGAAUAA [RNAcompete motif RNCMPT00743] the binding signal (z-score (mean of top ten 7-mers)) (DDX53 (Homo sapiens)) was 6.26.

Substance AGAGUA [RNAcompete motif RNCMPT00727] has a binding signal (z-score (mean of top ten 7-mers)) (mex3c (Danio rerio)) of 10.1.

Work on ACUAAC [RNAcompete motif RNCMPT00718] yielded a binding signal (z-score (mean of top ten 7-mers)) [5] of 18.9.

AUNGCAC [RNAcompete motif RNCMPT00739] gave a binding signal (z-score (mean of top ten 7-mers)) [6] of 7.82.
